Measurements published in patent US20170056473A1 (published 2017).

How the values were obtained:
Assay in all cases: cytokine release
[1] = biological target: T1, EBV LMP1; printed as LMP1*125 (the same label as …) peptide on HLA-A*02:01 (human)
T1 peptide: YLQQNWWTL

[2] = biological target: T2, EBV LMP1; LMP1*173 peptide on HLA-A*02:01 (human)
T2 peptide: WLLLFLAIL

[3] = biological target: T3, EBV LMP1; LMP1*92 peptide on HLA-A*02:01 (human)
T3 peptide: LLLIALWNL

[4] = biological target: T4, EBV LMP1; LMP1*32 peptide on HLA-A*02:01 (human)
T4 peptide: LLLALLFWL

[5] = biological target: T5, EBV LMP1; LMP1*167 peptide on HLA-A*02:01 (human)
T5 peptide: LLVDLLWLL

[6] = biological target: T6, EBV LMP1; LMP1*125 peptide on HLA-A*02:01 (human)
T6 peptide: YLLEMLWRL

Measured: binding result

B1: LMP1*166 S4-12 TCR (TCR, V domains shown)
Valpha: GEQVEQRPPHLSVREGDSAVIICTYTDPNSYYFFWYKQEPGAGLQLLMKVFSSTEINEGQGFTVLLNKKDKQLSLNLTAAHPGDSAVYFCAVSGTGGYKVVFGSGTRLLVSP
Vbeta: NSKVIQTPRYLVKGQGQKAKMRCIPEKGHPVVFWYQQNKNNEFKFLINFQNQEVLQQIDMTEKRFSAECPSNSPCSLEIQSSEAGDSALYLCASNQLGSSYEQYFGPGTRLTVL
recognises: [5]
no recognition: all other assays above
